# Where two headings read alike, the source gives them in different places.
# Experiments:
# FAM20C [1] = target: T1, FAM20C (Mus musculus, UniProt Q5MJS3); experiment: FAM20C in vitro kinase assay with dephosphorylated alpha-Casein as substrate; format: biochemical; settings: 5 minute assays
# T1 construct: His (from vector pcDNA3.1/V5-His B) (C); made in house; host or cells: HEK293T
# T1 sequence (Q5MJS3 88-579): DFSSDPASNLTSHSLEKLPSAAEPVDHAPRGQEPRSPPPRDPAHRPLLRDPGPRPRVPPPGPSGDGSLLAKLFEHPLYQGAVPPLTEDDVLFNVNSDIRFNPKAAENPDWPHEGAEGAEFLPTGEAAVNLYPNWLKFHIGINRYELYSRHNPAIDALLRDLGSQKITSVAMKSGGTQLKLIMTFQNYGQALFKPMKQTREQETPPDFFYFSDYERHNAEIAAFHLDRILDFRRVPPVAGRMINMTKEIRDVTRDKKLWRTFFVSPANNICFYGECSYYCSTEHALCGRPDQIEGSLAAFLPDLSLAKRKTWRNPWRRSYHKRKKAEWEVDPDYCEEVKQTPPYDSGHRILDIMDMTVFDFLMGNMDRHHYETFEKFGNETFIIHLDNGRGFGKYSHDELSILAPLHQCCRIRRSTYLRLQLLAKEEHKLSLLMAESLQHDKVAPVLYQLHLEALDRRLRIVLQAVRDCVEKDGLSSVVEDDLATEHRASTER
# Description: For FAM20C:V5 purification, pcDNA-FAM20C:V5 was transfected to HEK293T cells, and FAM20C:V5 was purified from conditioned media using anti-V5 agarose beads (Sigma). Condition media were incubated with anti-V5 affinity gel (Sigma) overnight at 4° C. Agarose beads were collected by centrifugation, and washed 5 times with TBS. Proteins were eluted using V5 peptides in TBS (Sigma, final concentration: 100 μg/ml). For purification of OPN:FLAG, BSP:FLAG, DMP1:FLAG, DSPP:FLAG and MEPE:FLAG, condition media were incubated with anti-FLAG M2 affinity gel (Sigma) overnight at 4° C. Agarose beads were collected by centrifugation, and washed 5 times with TBS. Purified quantification was performed on gels stained by SYPRO Ruby Protein Gel Stain (Invitrogen), using BSA as a standard.
# FAM20C kinase assays were performed in 10 μl reactions, with 500 μM ATP, including 3 μCi (0.05 μM) of [gamma-^32P]ATP (6000 Ci/mmol, PerkinElmer), 50 mM Tris (pH 7.0), 10 mM MnCl2, 0.1% BSA, purified FAM20C:V5 (5 ng, […]), and dephosphorylated alpha-Casein (0.1 μg, Sigma). […] Radioactivity within the gels was detected using a Molecular Dynamics Phosphor Imager. For quantitation of gamma-^32P incorporation, bands were cut out of the gels using the Phosphor Imager pictures as a reference, and then counted by liquid scintillation using a Beckman Coulter LC6500. […]
# [2] = system: Golgi apparatus casein kinase (G-CK); settings: literature value (ref. 20), cited from earlier work
# FAM20C [3] = target: T1, FAM20C; experiment: FAM20C kinase assay with peptide substrates (P81 phosphocellulose paper); format: biochemical; settings: in vitro kinase reaction, FIG. 6
# Description: FAM20C kinase assays were performed in 10 μl reactions, with 500 μM ATP, including 3 μCi (0.05 μM) of [gamma-^32P]ATP (6000 Ci/mmol, PerkinElmer), 50 mM Tris (pH 7.0), 10 mM MnCl2, 0.1% BSA, purified FAM20C:V5 (5 ng, […]), and dephosphorylated alpha-Casein (0.1 μg, Sigma). The kinase reaction was linear at 5 minutes, and the reaction rate was dependent on enzyme and substrate concentrations. Reactions were stopped by adding SDS sample buffer and boiling, and one half of the reaction volume was subjected to SDS-PAGE. Radioactivity within the gels was detected using a Molecular Dynamics Phosphor Imager. For quantitation of gamma-^32P incorporation, bands were cut out of the gels using the Phosphor Imager pictures as a reference, and then counted by liquid scintillation using a Beckman Coulter LC6500. Myelin Basic Protein (0.5 μg, NEB) and affinity-purified Fat2-3:FLAG (0.1 μg)^8 were used as control substrates. To determine pH-dependency, the pH in the reaction buffer was varied using Tris-HCl buffers. Synthesized peptides were designed from the sequence of human Osteopontin 115Asp to 132Leu, adding three basic amino acids (Arg-Lys-Arg) to its N-terminus to enable peptide binding to phosphocellulose paper (P81, Upstate). Peptides were purchased from Peptide2.0. Peptide1 ([…]; SEQ ID NO: 41), Peptide2 ([…]; SEQ ID NO: 42), Peptide3 ([…]; SEQ ID NO: 43), and Peptide4 ([…]; SEQ ID NO: 44).
# (§1) FAM20C kinase assay with peptides substrates were performed in 10 μl reactions, with 500 μM ATP, including 3 μCi (0.05 μM) of [gamma-^32P]ATP (6000 Ci/mmol, PerkinElmer), 50 mM Tris (pH 7.0), 10 mM MnCl2, 0.1% BSA, purified FAM20C:V5 and peptides. Casein Kinase I (500 units, NEB) was used as a control kinase. mutant versions (5 ng, […]), and peptides (2.5 μg, 1 nmol as a standard condition. 250 ng, […] in FAM20C mutants). Reactions were stopped by adding 1.5 μl 0.1N—HCl, and one half of the reaction volume was pipetted on to P81 phospho-cellulose filter paper^27. The filter papers were washed with 0.5% phosphoric acid and subjected to liquid scintillation counting.
# Casein Kinase I = target: T2, Casein Kinase I (Rattus norvegicus, UniProt Q06486); experiment: Casein Kinase I control kinase assay with peptide substrates; format: biochemical; settings: in vitro kinase reaction, FIG. 6
# T2 construct: purchased NEB
# T2 sequence (Q06486 1-317 limits assumed): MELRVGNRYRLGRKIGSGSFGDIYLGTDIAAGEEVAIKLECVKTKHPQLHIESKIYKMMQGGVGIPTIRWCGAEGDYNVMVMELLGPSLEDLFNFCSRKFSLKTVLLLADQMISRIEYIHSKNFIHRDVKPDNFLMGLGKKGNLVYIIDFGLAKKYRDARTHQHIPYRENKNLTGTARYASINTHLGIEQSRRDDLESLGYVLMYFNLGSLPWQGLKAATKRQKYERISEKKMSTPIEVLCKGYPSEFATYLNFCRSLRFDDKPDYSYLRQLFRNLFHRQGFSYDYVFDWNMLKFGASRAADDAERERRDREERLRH
# Description: as §1
compound,measurement,setting,value
Nc1ncnc2c1ncn2[C@@H]1O[C@H](COP(=O)(O)OP(=O)(O)OP(=O)(O)O)[C@@H](O)[C@H]1O [ATP],Km,"FAM20C [1]; FAM20C, dephosphorylated alpha casein as substrate, read-out: Km for ATP",78 µM
same,Km,[2]; read-out: Km for ATP originally measured for G-CK,80 µM
Casein,Km,"FAM20C [1]; linear reaction conditions, average of several independent experiments, read-out: Michaelis constant (Km) of FAM20C for Casein",1.5 µM
same,Km,[2]; read-out: Km for α-Casein for G-CK,12 µM
"RKRDDAHQSDEAHHSDESDEL [OPN-ASARM^2S-A, derivative in which the other two Ser residues were changed to Ala]",phosphorylation of peptide by FAM20C,FAM20C [3],still efficiently phosphorylated
same,phosphorylation of peptide by CKI,Casein Kinase I,"reduced, but similar levels of activity"
"RKRDDSHQADESHHADEADEL [OPN-ASARM^3S-A, peptide in which only the three G-CK consensus sites were changed to Ala]",phosphorylation of peptide by FAM20C,FAM20C [3],phosphorylated much less effectively
same,phosphorylation of peptide by CKI,Casein Kinase I,"reduced, but similar levels of activity"
"RKRDDSHQSDESHHSDESDEL [OPN-ASARM, amino acids 115-132 of human OPN with N-terminal Arg-Lys-Arg]",phosphorylation of peptide by FAM20C,FAM20C [3],is a FAM20C substrate
same,phosphorylation of peptide by CKI,Casein Kinase I,phosphorylated

# — US20120184713A1, “Compositions and Methods for Modulation of Bone Density and Biomineralization” (priority 2011, published 2012)
